{
  "source": "the DeepSol protein solubility set",
  "data": [
    {"experiment": "soluble on expression in E. coli; label from the status in PepcDB or PDB records", "values": [
      {"sequence": "MITKRQLSILNAIVEDYVDFGQPIGSKTLIHRHHLDVSPATIRNEMKQLEEMHFIEKTHTSSGRVPSESGIRYYVNRLLEQTSHQSQNKIQRLNQLLIENHYDSSTALTNFAHELSMKSQYATLVVRPNHKQDVINDIHLIRANNHLIILVMVFSSGHVENIHFVSHAQLNNINLNKIANFLTEHFSFNRKVLTQNIESYFSQKEELLLANEVVEMINLQIGNQSNSIYMGGKVKLIDALNESNVSSIQPILQYIESNKITELLEDISTSQINVRIGKEIDDSLSDISIVTSQYHFDESLKGQIAVIGPTAMHYQNVIQLLNRIW", "soluble on expression in E. coli": "not soluble"},
      {"sequence": "MRYTMDIEFSQIHEMVYMHDIVNSDSKKKPRIPLKKFLNAENVLTQTTSWTLNSRYVNVNSVNKVNVKSKVKNSYISRSVNDEFSLTDDEINSFKETLVLSSIDSLSKLVLNNPLSVLFTSTVRRNNNRAKMNVEFDSWICTRCCLEHHHHHH", "soluble on expression in E. coli": "soluble"},
      {"sequence": "SNAMKLYIYDHCPFCVKARMIFGLKNIPVELNVLQNDDEATPTRMIGQKMVPILQKDDSRYLPESMDIVHYVDNLDGKPLLTGKRNPAIEEWLRKVNGYVNQLLLPRFAKSAFDEFSTPAARQYFIRKKEASSGSFDNHLAHSAGLIKKIGDDLRLLDKLIVQPNAVNGELSEDDIHLFPLLRNLTLVAGIHWPTKVADYRDNMAKQTQINLLSSMAI", "soluble on expression in E. coli": "soluble"},
      {"sequence": "MGSDKIHHHHHHRWIPGSRDFDSWLVTLHAQLLAEVDYPRELRMAQVMTEGLAQHEALQSAPVTLRVPHFWPEHCSTNVLTMDYVEGHRAASPEVAALPQSARNELGKAMLQLFFAEVFDLGLVQTDPNFGNYLINDDGTELTLLDFGSVFELDETVRTALCDTIVAGLTNDETRLELALVALGCLKPGAGESAKATFKAFIRNLLEPLRPPEALPPEHLNAEGLYCWGHSELVNRTGQQVARSLTNREFAIPSSDFAMVARKLTGVFTFIAVLDAEFNGHDIAAPYLDEVTAGGET", "soluble on expression in E. coli": "not soluble"},
      {"sequence": "MSLARKKRNPDAEKLAESILNAYQPESVDDMQDALKDVFGPLFEKMLQGELNNHLGYDAHSKEPKEHDNRRNGYGTKTLKTSFGEVAIDVPRDREASFEPELIPKRKRDVSDIEGKVLSMYARGMSQRDIAATVEAIYGFDISHEMISDITDAVLPELEEWQARPLAKCYAFLFVDCMYVTLRENYEAKEYAVYTILGYDLKGNKEILGLWLNQTESKNRWMQVFDELKARGVEDVFFISMDGVSGLEEGAKAIFPSVIVQRCIVHLVRNALRYIPSKDYKEVCRDMKKFYGASSLNAAHAAFGSFQNRWSHYSGAVDVWKRNFAHVEQLFDYGSAIRKIMYTTNAVESVHSSFRKVTKKGAFSNENALLKLLYLRTKELHAKWSGGRIQNWAMVLKQLMINETFSSRMKSMRFTFRNNGRFIQLCVRSKEGHHHHHH", "soluble on expression in E. coli": "soluble"},
      {"sequence": "MPELSPLTYGHTDARLILRVGGSMGDVYGQRLLKRDLNGYILNEEGVGLAMENKETYLGSILPKMNMGWSLGFGYKGVNLGMTFTGRFGGIVISETQSVLDAAGVSKVSADVRDAGGVQINQSKVSAQTYYQTIQGTAAYYTYSATNVRLGELSLSYTLPKKWFDNKVGMTVGLVGKNLWMIYCKAPFDPELTTSAASNFYQGFDAYMLPSTRNFGFNVKFQF", "soluble on expression in E. coli": "not soluble"},
      {"sequence": "VPRIAEVRDAAEPSSEEQRARHVRMLEAAIELATEKELARVQMHEVAKRAGVAIGTLYRYFPSKTHLFVAVMVDQIDRMGVGFKKSAPPGESPQDAVYNVLVRATRGLLRRPALSTAMIQSTSTANVASVPDAGKVDRAFRQIMLDAAGIEHPTEEDLTALRLLVQLWFGVIQSCLNGRVSIPDAESDIRRACDLLLVNLSHR", "soluble on expression in E. coli": "soluble"},
      {"sequence": "MAHHHHHHMAAYGIVESPDNVDYKTKCCCQTTDGVYFQVPKEYFRLHANLSRRKLLIAEPFGVPLDSSAFESLVVLLEKAAIVSPAAATAGTEVVSKGDGAKQQWIKDLNKRQQKFVGACLGVTTWDGADVYFYEEKLPKESDVVWVKVIQVNDTSAVVQLLEYGNHEGIIPYTEITRIRIRAIGKVIKVGKNEAAQVIRIDKDKGYIDLSKKQVTLKEAKDCEARFFKGNEVRSVVCHVADECGVPPAEAMKRIAYPLYRRQPGKHAWEWLYELNQTKDVKGILGDLEISEAEIKVLMTTLEHTMRTEIATIHADIEMTCFQCDGVNALREVLLVGRDFKAGKDPLIPISVTIVGPPKYRLRAKTELKEEGIVRMKEAIEMMKIEMAKRGGILKVVAGPFVLGEEEHTKEERNEDAEDDEGEDTD", "soluble on expression in E. coli": "not soluble"},
      {"sequence": "MSLAKAYDHLFKLLLIGDSGVGKTCLIIRFAEDNFNNTYISTIGIDFKIRTVDIEGKKIKLQVWDTAGQERFKTITTAYYRGAMGIILVYDITDEKSFENIQNWMKSIKENASAGVERLLLGNKCDMEAKRKVQKEQADKLAREHGIRFFETSAKSSMNVDEAFSSLARDILLKSGGRRSGNEGHHHHHH", "soluble on expression in E. coli": "soluble"},
      {"sequence": "MGHHHHHHGGHMSLRTEEEMFQLIMDVAKQEEHIRAVGMVGSRTNVKAPKDSFQDFDIVYIVEPCAEFFETATWIAKFGQPLIMQRPKEMTLFPTEPKTRETFLMLFEDGQRIDLTLCPLAEKDNWHEGDSLAIILLDKDENLPPLPVASDKNYTVTVPDQQQFNDCCNEFWWVSTYVVKGLCRNELFYAVTHLYEYCQQELLRLLSWQAAWQEPEPISVGKQFKYLKNYVTPDTMDQLASLLDFSSKEACWNSLIKTQAFFDVVAQDFAKMAQFTYHLQEAKKVTEYTNSLRLKDLQGKEGGS", "soluble on expression in E. coli": "not soluble"},
      {"sequence": "MKTLTDTDHIHTLIAEGEHQQQDFKFEISDARKIAKTLSAFANTDGGRLLIGVKDNGRIAGVRSEEEKYMIEAAAQLYCIPEIDYTLQTYIVEGKQVLVATIEENPHKPVYAKDENGKPLAYLRIKDENILATPIHLRVWQQSGSPRGELIRYTEREQLLLDLLEQGTLLSLNRYCRQTGISRRAAEHLLAKFVRYDIVEPVFENHKFYFRMKNELEHHHHHH", "soluble on expression in E. coli": "soluble"},
      {"sequence": "MGSDKIHHHHHHMTIFSVRHITSYRYKRPVEFGEHRLMFRPRDSFDQTLLSSHLDVDPKPDYIRWIHDVFGNCVALVGFTGKARELCFGTNIRLDHTQQVEMDLQIDAEALHYPFAYDPEEVVDLERTIKRHFADPDDEVGRWTRQFVRIGQPTETGRLLMTLCYAIHESFIYARRLEHGTQTPLETLRLRRGTCRDFALLMMEAARSLGLAARFVTGYIYVPDRDGSTKLGGGSTHAWCQVYLPGAGWVEFDPTNGIVGNRDLIRVGVARDPKQAVPLSGSYDGDASDFDTMSVQVNVTTDKLSDTAA", "soluble on expression in E. coli": "not soluble"},
      {"sequence": "GMELDDAYANGAYIEGAADYPPRWAASAEDFRNSLQDRARLNLSYGEGDRHKFDLFLPEGTPVGLFVFVHGGYWMAFDKSSWSHLAVGALSKGWAVAMPSYELCPEVRISEITQQISQAVTAAAKEIDGPIVLAGHSAGGHLVARMLDPEVLPEAVGARIRNVVPISPLSDLRPLLRTSMNEKFKMDADAAIAESPVEMQNRYDAKVTVWVGGAERPAFLDQAIWLVEAWDADHVIAFEKHHFNVIEPLADPESDLVAVITA", "soluble on expression in E. coli": "soluble"},
      {"sequence": "MSLKSLEIFSGAGGLAKGLELAGFQHASFIELNKDACNSLRSNFNPKLVYQGDVADFDLSSQEGIEVIAGGPPCQPFSLGGKHLAHEDRRDMFPHAVRYVEYYRPKAFIFENVKGLLRKSFADYFEYILLRLTYPNLGILQNEDWKGHLTRLKEIEFNLYKGIKYKVSYQLLNAADYGVPQKRERVVIVGIRADLDIDWKFPKRTHSEDRLNWEKYVTGEYWEKHNEPKRFNKDIAEKLQKKYGIFEPEKKPWQTVRDTLSDIPHPLGNHKITGHEYRDGARIYPGHTGSGIDEPSKTIKAGGHGVPGGENMIRYDDGTVRYFTSYEAKLLQTFPEEFVISGAWGEAMRQIGNAVPVKLSEILGKHLMGVLSEKSSLHNEGHHHHHH", "soluble on expression in E. coli": "soluble"},
      {"sequence": "MSLNPFQKIKSAVNKRQRFFINRTLQRKLTNQGMTVISANCVGAFILHDLHQPFNSPFVNLYLSPQDFLRYLQNIDFYLTQPLTFVQTEKSYPVGKLADLEIHFMHYHSEQEANEKWQLRTSRMKLDNLFIMMTDRDGVTEKDIQLFDQLPFKNKVIFTHKPYPAFKSAYYIKGFEKQNQVGDIFEFSGWNGKKYYDQFDYVKWFNHAEGHHHHHH", "soluble on expression in E. coli": "soluble"},
      {"sequence": "MFKKLFGLGSKTNEETIVAPLTGAVKNIEEVPDPVFAGRMMGDGVAIDPTEGVVVSPVDGEIVQLFHTKHAIGIKAKNGTEILIHVGLETVKMEGEGFEAHVSEGQAVKAGDKLISFDLELIREKAKSTITPIVITNTDAAESIKTTVGVTATKGSTEVMKVTMK", "soluble on expression in E. coli": "not soluble"},
      {"sequence": "MKVDKETIEYVANLARLRLSEKEKEKLALDLESIISYVDKLNELDTSKIIPTDHVIPIKNVFRDDEVRDSYPKDKMLMNAPEKEDGCFKVPKVVE", "soluble on expression in E. coli": "soluble"},
      {"sequence": "MGSDKIHHHHHHMATETLTKSDAITQSLRAAVDRNFNDQVAFLQRMVQFRSVRGEEAPQQEWLAQQFADRGYKVDTFSLADVDIASHPKAAPMDTIDPAGSMQVVATADSDGKGRSLILQGHIDVVPEGPVDLWSDPPYEAKVRDGWMIGRGAQDMKGGVSAMIFALDAIRTAGYAPDARVHVQTVTEEESTGNGALSTLMRGYRADACLIPEPTGHTLTRAQVGAVWFRLRVRGTPVHVAYSETGTSAILSAMHLIRAFEEYTKELNAQAVRDPWFGQVKNPIKFNVGIIKGGDWASSTAAWCELDCRLGLLTGDTPQEAMRGIEKCLADAQATDSFLSENPAELVWSGFQADPAVCEPGGVAEDVLTAAHKAAFNAPLDARLSTAVNDTRYYSVDYGIPALCYGPYGQGPHAFDERIDLESLRKTTLSIALFVAEWCGLRKL", "soluble on expression in E. coli": "not soluble"},
      {"sequence": "MSLTGQAEAPFIRHGYFKFADGVIVSVAEGTPSPEEIDRVEVIDGKGKWVMPGMINTHGHLGMSLLRGHSDDLPLQSWLTEKMWPFEGKMDREAVHHARQLAMAEMIKSGTTTFLEMYHLYMDDLAEAVVEQGPRAVLMRSMIGLCSESEQREKLKEAVTFATTWNGDGNGRITTMMAPHAPYTCPPSFIEMIVDEADRIDLPLHTHMAETQREVEEHRKTYGVHPLVHFEQLGFLKDRHWLLAHCVHLGEEELDILEQHPSVHVSHNPMSNLKLGSGIANVQSMLERGINICLGTDSVASNNHLDLVEEMRIAALLQKGAVLDPTAIPAETAIAMATKNGAKALRLPQVGTIEAGKRADFIMIDPQCLHLQPHEHVMSHLVYALKGADVQDVFVEGAPLMLNKELKTFDEEKLQFEANAHYQRICEKLKEGHHHHHH", "soluble on expression in E. coli": "not soluble"},
      {"sequence": "MSTVVEKSGEAKPGKVEVGVKLRGAEKVARIPVKIIPTEELPKKPDWIRVRIPVSPEVDRIKQLLRKHKLHSVCEEASCPNLGECFSGGTATFMIMGDICTRRCPFCDVGHGRPKPLDVDEPTNLAIAIADLRLKYVVITSVDRDDLRDGGAQHFADCLREIRKLSPGIQLETLVPDYRGRMDIALEITANEPPDVFNHNLETVPRLYRSSRPGSDFEWSLDLLQKFKQMVPHVPTKSGLMLGLGETDDEVIEVMQRMREHDIDMLTLGQYLQPSRNHLPVQRFVHPDTFAWFAEEGEKMGFKNVASGPLVRSSYHADQQAHGNKIG", "soluble on expression in E. coli": "not soluble"},
      {"sequence": "MGSDKIHHHHHHMEKSSIYGLTWTNLTEWLEAHGQKKFRATQVWDWLYRKRVKTFEEMSNVPKETIELLTANFVMNTLEEQVVQESTDGTTKYLFKLSDGNLIETVMMKQEYGLSVCVTTQVGCNIGCTFCASGLLKKSRDLTAGEIVEQIMNVQHYLDGRNLEERVSHVVVMGIGEPFDNYDNVMDFLRVINHDKGLAIGARHITVSTSGLAPRIIDFANEDFQVNLAISLHAPNNELRTSIMRINKTYSIEKLMEAIHYYVNKTNRRITFEYIMLKGVNDHKKEALELAALLGEHRHLAYVNLIPYNPVDEHIDYERSTKEDVLAFYDTLKKNGINCVIRREHGTDIDAACGQLRSKQIKRVGVRERMKQKQAAAEE", "soluble on expression in E. coli": "not soluble"}
    ]}
  ]
}
